From doi:10.1101/2025.02.14.638281 (bioRxiv, 2025)
Values joined by “and” are separate entries in the source; they are usually repeats but may differ in a detail not shown here. Identical values can stand only once.

Target: the molecule itself
Experiment: SEC

B1: Synechocystis sp. PCC 6803 fructose-1,6-bisphosphatase (FBPase; slr0952) (enzyme, UniProt P74324 1-347, looked up)
chain: MTVSEIHIPNSLLDRDCTTLSRHVLQQLNSFGADAQDLSAIMNRIALAGKLIARRLSRAGLMADVLGFTGETNVQGESVKKMDVFANDVFISVFKQSGLVCRLASEEMEKPYYIPENCPIGRYTLLYDPIDGSSNVDINLNVGSIFAIRQQEGDDLDGSASDLLANGDKQIAAGYILYGPSTILVYSLGSGVHSFILDPSLGEFILAQENIRIPNHGPIYSTNEGNFWQWDEALRDYTRYVHRHEGYTARYSGALVGDIHRILMQGGVFLYPGTEKNPDGKLRLLYETAPLAFLVEQAGGRASDGQKRLLDLIPSKLHQRTPAIIGSAEDVKLVESFISDHKQRQGN
With B1 the “stoichiometry N” value was 12 and 4.
